# B1: anti-human CTLA-4 mAb clone L3D10 (antibody, from another filing, V domains shown)
# VH: QVQLKESGPGLVAPSQSLSITCTVSGFSLTSYGLSWVRQPPGKGLEWLGVIWYDGNTNFHSALISRLTISKDNSKSQVFLELNSLQTDDTATYYCAKTEGHYYGSNYGYYALDYWGQGTSVTVSS
# VL: DIQMTQSPASLSVSVGETVTITCRASENIYSNLAWYQQKQGKSPQLLVYAATNLADGVPSRFSGSGSGTQYSLKINSLQSEDFGTYFCQHLWGTPYTFGGGTKLEIKR
# Target: human CTLA-4Ig fusion protein (extracellular domain of human CTLA-4 and the Fc fragment of human IgG1) (human) (UniProt P16410)
# Test: Biacore SPR, huCTLA-4Ig immobilized by amine coupling, mAb injected, 25 C
# Chain of UniProt P16410 (P16410 36-161): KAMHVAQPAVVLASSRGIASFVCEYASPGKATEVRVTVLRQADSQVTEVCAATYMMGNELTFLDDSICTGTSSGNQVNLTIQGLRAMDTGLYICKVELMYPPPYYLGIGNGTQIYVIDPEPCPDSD
binder,measurement,value
B1,Kd,3.06 nM
same,koff,0.000633 s⁻¹
same,kon,207000 M⁻¹ s⁻¹
